# Source: patent US20230174642A1, “AFFINITY-MATURATED ANTI-ASIC1a ANTIBODIES” (SHANGHAITECH UNIVERSITY, priority 2019, published 2023)
# Where a chain is given by its changes, count along the chain named.
# T1: hASIC1a on CHO-K1 cells stably expressing hASIC1a (human, UniProt P78348 1-528)
# T1 sequence (looked up): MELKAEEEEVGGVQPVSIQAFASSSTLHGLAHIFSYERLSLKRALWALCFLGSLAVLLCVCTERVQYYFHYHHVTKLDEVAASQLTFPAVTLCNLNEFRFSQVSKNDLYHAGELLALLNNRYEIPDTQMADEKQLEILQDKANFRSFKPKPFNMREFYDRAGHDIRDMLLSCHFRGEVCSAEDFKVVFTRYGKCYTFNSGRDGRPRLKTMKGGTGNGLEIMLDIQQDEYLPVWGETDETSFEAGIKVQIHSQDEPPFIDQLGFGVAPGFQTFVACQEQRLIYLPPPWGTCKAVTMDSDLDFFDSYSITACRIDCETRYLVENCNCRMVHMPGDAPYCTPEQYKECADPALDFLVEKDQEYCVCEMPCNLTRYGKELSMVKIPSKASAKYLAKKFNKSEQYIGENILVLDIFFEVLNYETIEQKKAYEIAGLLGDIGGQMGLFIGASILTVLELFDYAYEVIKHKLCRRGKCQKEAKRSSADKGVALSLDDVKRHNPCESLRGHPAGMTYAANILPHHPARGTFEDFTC
# T2: hASIC1a-mCherry fusion on a stable cell line (human, UniProt P78348 1-528)
# T2 sequence (looked up): T1 sequence (looked up)
# T3: recombinant extracellular domain of hASIC1a (hASIC1a-ECD) (Homo sapiens, UniProt P78348)
# T3 construct: recombinant extracellular domain of hASIC1a(hASIC1a-ECD)
# T3 sequence (P78348 67-427 limits assumed): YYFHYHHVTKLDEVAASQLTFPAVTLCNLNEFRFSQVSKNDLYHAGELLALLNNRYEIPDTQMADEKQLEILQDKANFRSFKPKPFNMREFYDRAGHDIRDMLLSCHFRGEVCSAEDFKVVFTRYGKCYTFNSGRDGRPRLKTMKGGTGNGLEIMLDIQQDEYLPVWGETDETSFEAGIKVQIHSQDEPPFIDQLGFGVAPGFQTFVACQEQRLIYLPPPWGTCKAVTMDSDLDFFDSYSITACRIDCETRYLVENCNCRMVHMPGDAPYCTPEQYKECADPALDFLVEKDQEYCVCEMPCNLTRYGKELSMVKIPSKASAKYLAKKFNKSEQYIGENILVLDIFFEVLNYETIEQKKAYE
# T4: human ASIC1a (hASIC1a-eYFP) (Homo sapiens, UniProt P78348)
# T4 construct: expressed in transfected cells; host or cells: CHO-K1 (transient)
# T4 sequence (P78348 1-528): T1 sequence (looked up)
# T5: mouse ASIC1a (mASIC1a-eYFP) (Mus musculus, UniProt Q6NXK8)
# T5 construct: expressed in transfected cells; host or cells: CHO-K1 (transient)
# T5 sequence (Q6NXK8 1-526): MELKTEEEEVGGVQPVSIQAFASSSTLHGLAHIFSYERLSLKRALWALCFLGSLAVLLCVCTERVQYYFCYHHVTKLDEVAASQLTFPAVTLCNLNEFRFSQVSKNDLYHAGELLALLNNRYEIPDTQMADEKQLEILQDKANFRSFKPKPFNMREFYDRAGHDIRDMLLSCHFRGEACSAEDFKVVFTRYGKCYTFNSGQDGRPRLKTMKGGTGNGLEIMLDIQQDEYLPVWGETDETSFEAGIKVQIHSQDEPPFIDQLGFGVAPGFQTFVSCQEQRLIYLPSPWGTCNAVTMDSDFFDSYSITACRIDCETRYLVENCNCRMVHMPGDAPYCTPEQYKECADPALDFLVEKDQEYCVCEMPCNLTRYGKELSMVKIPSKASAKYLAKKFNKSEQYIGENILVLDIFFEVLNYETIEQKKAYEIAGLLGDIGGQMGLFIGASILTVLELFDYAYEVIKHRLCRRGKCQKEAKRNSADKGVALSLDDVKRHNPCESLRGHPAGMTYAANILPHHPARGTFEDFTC
# T6: rat ASIC1a (rASIC1a-eYFP) (Rattus norvegicus, UniProt P55926)
# T6 construct: expressed in transfected cells; host or cells: CHO-K1 (transient)
# T6 sequence (P55926 1-526): T5 sequence (Q6NXK8 1-526) with N476S
# B1: ASC06-03-IgG1 (antibody, V domains shown)
# VH: QVQLQQSGGGLVQPGGSLRLSCAASGFTFSSYAMSWVRQAPGKGLEWVSAISGSGGSTYYADSVKGRFTISRDNSKNTLYLQMNSLRAEDTAVYYCAKDSFYGRAKGSWGQGTLVTVSS
# VL: QSALTQPASVSGSPGQSITISCTGTSSDVGAYNYVSWYQQQPGKAPKLMIYGVSNRPSGVSNRFSGSKSGNAASLTISGLQAEDEADYYCSSYTSSSTYVFGTGTKLTVLG
# notes: Full length IgG1
# B2: ASC06-02-IgG1 (antibody, V domains shown)
# VH: B1 VH with Y102F
# VL: B1 VL
# notes: Full length IgG1
# B3: ASC06-01-IgG1 (antibody, V domains shown)
# VH: B1 VH with F101Y, Y102F, R104Y, A105S, S108D
# VL: B1 VL
# notes: Full length IgG1
# B4: ASC06-IgG1 (antibody, V domains shown)
# VH: B1 VH with R104Y, A105S, S108D
# VL: B1 VL
# notes: Tested as full length IgG1; also called WT antibody ASC06-IgG1; parental ASC06-IgG1 antibody
# B5: ASC06-04-IgG1 (antibody, V domains shown)
# VH: B1 VH with S108V
# VL: B1 VL
# notes: Full length IgG1
# B6: ASC06-01-IgG1: affinity-matured ASC06 derivative, VH-CDR3 DSYFGYSKGD (SEQ ID NO: 11) (antibody, V domains shown)
# VH: B1 VH with F101Y, Y102F, R104Y, A105S, S108D
# VL: B1 VL
# B7: ASC06-04-IgG1: affinity-matured ASC06 derivative, VH-CDR3 DSFYGRAKGV (SEQ ID NO: 17) (antibody, V domains shown)
# VH: B1 VH with S108V
# VL: B1 VL
# B8: ASC06-02-IgG1: affinity-matured ASC06 derivative, VH-CDR3 DSFFGRAKGS (SEQ ID NO: 13) (antibody, V domains shown)
# VH: B1 VH with Y102F
# VL: B1 VL
# B9: ASC06-03-IgG1: affinity-matured ASC06 derivative, VH-CDR3 DSFYGRAKGS (SEQ ID NO: 15) (antibody, V domains shown)
# VH: B1 VH
# VL: B1 VL
# B10: ASC06-IgG1: parental (WT) ASIC1a-specific antagonist antibody; VL SEQ ID NO: 2, VH SEQ ID NO: 7, VH-CDR3 DSFYGYSKGD (antibody, V domains shown)
# VH: B1 VH with R104Y, A105S, S108D
# VL: B1 VL
# modifications: IgG1 constant regions; Amino acid sequence VH of ASC06; Amino acid sequence VL of ASC06
# Target: T1, hASIC1a on CHO-K1 cells stably …
# Test: cell-based or functional assay
# Details: not given
Molecule,"Percent inhibition of the acid induced-hASIC1a currents, 30 nM antibody (Patch Clamp) [%]","Percent inhibition of the acid induced-hASIC1a currents, 100 nM antibody (Patch Clamp) [%]"
B1,79.4,89.7
B2,94.6,97.2
B3,20,49
B4,35.5,55.5
B5,,96.7

# Target: T2, hASIC1a-mCherry fusion on a stable cell …
# Test: cell-based or functional assay
# Details: not given
row,Molecule,"IC50 for the inhibition of acid induced ASIC1a-mediated calcium influx, FLIPR-based assay [nM]"
1,B1,2.61
2,B2,1.97
3,B3,2.24
4,B4,2.11

# Target: T3, recombinant extracellular domain of hASIC1a (hASIC1a-ECD)
# Test: Biacore T200 binding affinity measurement
# Details: Biacore T200, hASIC1a immobilized, antibody as analyte
# Description: Binding affinities of four affinity-matured antibodies in IgG1 format (ASC06-01-IgG1 through ASC06-04-IgG1) to the recombinant extracellular domain of hASIC1a(hASIC1a-ECD) were measured using the Biacore T200™ (GE Healthcare). The ASC06-IgG1 antibody was used as a positive control. All manipulations were followed by the user guide of manufacturer. Briefly, was hASIC1a was immobilized, and serial dilutions of the indicated antibodies were added as analytes. The analysis of the results were processed in BIA Evaluation Software™.
row,Molecule,Ka [M⁻¹ s⁻¹]
1,B6,9.7e+06
2,B7,620000
3,B8,1.3e+07
4,B9,680000
5,B10,4.7e+06

# Target: T4, human ASIC1a (hASIC1a-eYFP)
# Test: FACS-based binding assay, transiently transfected CHO-K1 cells (species selectivity)
# Details: double positive population
# Description: (§1) To investigate the species selectivity of ASC06-IgG1 affinity-matured antibodies, plasmids encoding fusion proteins of eYFP with […] homologs of ASIC1a were constructed. These plasmids included those encoding human ASIC1a (hASIC1a-eYFP), mouse ASIC1a (mASIC1a-eYFP), and rat ASIC1a (rASIC1a-eYFP). CHO-K1 cells were transiently transfected with the ASIC1a-eYFP plasmids, and a fluorescence activated cell sorting (FACS)-based binding assay was carried out to determine binding to the homologs or isoforms of ASIC1a expressed on the cell surface. An isotype control was used as a negative control for binding (NC). ASC06-IgG1 was used as a positive control. Summarily, the CHO-K1 cells expressing the ASIC1a-eYFP (green) homologs were stained with the indicated antibody (red) and subjected to FACS.
row,Molecule,binding to cells expressing hASIC1a-eYFP
1,B6,bound
2,B7,bound
3,B8,bound
4,B9,bound
5,B10,bound

# Target: T5, mouse ASIC1a (mASIC1a-eYFP)
# Test: as above
# Details: double positive population
# Description: as §1
row,Molecule,binding to cells expressing mASIC1a-eYFP
1,B6,bound
2,B7,bound
3,B8,bound
4,B9,bound
5,B10,bound

# Target: T6, rat ASIC1a (rASIC1a-eYFP)
# Test: as above
# Details: double positive population
# Description: as §1
row,Molecule,binding to cells expressing rASIC1a-eYFP
1,B6,bound
2,B7,bound
3,B8,bound
4,B9,bound
5,B10,bound
